Assays:
[1] = molecular target: the molecule itself; assay: SEC; analytical SEC, 10 µM enzyme loaded on Superdex 200 Increase 10/300, 50 mM HEPES pH 8.0, 150 mM NaCl, 20 µM PLP, samples incubated at 25 °C for 20 min; oligomeric state from the elution volume; the limits of K_Dtet-dim are of the step tetramer to dimers
[2] = molecular target: the molecule itself; assay: as above; remark: listed apart in the source

B1: human ornithine aminotransferase R154L pathogenic variant (enzyme)
chain: TSVATKKTVQGPPTSDDIFEREYKYGAHNYHPLPVALERGKGIYLWDVEGRKYFDFLSSYSAVNQGHCHPKIVNALKSQVDKLTLTSRAFYNNVLGEYEEYITKLFNYHKVLPMNTGVEAGETACKLALKWGYTVKGIQKYKAKIVFAAGNFWGRTLSAISSSTDPTSYDGFGPFMPGFDIIPYNDLPALERALQDPNVAAFMVEPIQGEAGVVVPDPGYLMGVRELCTRHQVLFIADEIQTGLARTGRWLAVDYENVRPDIVLLGKALSGGLYPVSAVLCDDDIMLTIKPGEHGSTYGGNPLGCRVAIAALEVLEEENLAENADKLGIILRNELMKLPSDVVTAVRGKGLLNAIVIKETKDWDAWKVCLRLRDNGLLAKPTHGDIIRFAPPLVIKEDELRESIEIINKTILSF
modifications: PLP on Lys292 (internal aldimine)
In the case of B1, the Kd [1] is reported as > 10 µM and the “stoichiometry N” value [2] is reported as 2.

From article PMC9967328 (International Journal of Molecular Sciences, 2023)
